T1: human G-CSF receptor (human, UniProt Q99062 25-836)
T1 sequence (looked up): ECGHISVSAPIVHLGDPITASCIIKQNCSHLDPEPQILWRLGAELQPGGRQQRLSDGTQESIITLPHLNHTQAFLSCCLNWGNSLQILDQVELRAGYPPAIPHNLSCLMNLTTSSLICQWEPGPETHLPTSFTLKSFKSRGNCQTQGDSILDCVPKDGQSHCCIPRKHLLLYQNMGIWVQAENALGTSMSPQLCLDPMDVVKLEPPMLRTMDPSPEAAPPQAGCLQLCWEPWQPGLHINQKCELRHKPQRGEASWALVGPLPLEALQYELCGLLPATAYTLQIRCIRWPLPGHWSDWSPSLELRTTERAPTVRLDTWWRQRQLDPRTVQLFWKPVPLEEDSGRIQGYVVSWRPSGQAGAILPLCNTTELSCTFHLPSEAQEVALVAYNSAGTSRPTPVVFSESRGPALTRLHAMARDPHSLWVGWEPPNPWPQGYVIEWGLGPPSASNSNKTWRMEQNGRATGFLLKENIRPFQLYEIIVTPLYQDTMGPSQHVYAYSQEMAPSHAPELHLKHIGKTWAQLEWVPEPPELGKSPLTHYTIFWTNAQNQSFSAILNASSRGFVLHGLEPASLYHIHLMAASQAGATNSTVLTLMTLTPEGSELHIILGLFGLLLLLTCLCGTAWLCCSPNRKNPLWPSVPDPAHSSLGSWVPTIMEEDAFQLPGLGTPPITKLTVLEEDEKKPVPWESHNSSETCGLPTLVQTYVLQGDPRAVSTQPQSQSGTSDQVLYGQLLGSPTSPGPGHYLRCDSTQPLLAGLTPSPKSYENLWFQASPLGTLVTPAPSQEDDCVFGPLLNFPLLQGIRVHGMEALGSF

B1: non-conjugated hG-CSF (Neupogen®) (ligand)
chain: MTPLGPASSLPQSFLLKCLEQVRKIQGDGAALQEKLCATYKLCHPEELVLLGHSLGIPWAPLSSCPSQALQLAGCLSQLHSGLFLYQGLLQALEGISPELGPTLDTLQLDVADFATTIWQQMEELGMAPALQPTQGAMPAFASAFQRRAGGVLVASHLQSFLEVSYRVLRHLAQP
B2: G-CSF variant K16/34/40R Q120K T133K conjugated to SPA-PEG 5000 (ligand)
chain: TPLGPASSLPQSFLLRCLEQVRKIQGDGAALQERLCATYRLCHPEELVLLGHSLGIPWAPLSSCPSQALQLAGCLSQLHSGLFLYQGLLQALEGISPELGPTLDTLQLDVADFATTIWQKMEELGMAPALQPKQGAMPAFASAFQRRAGGVLVASHLQSFLEVSYRVLRHLAQP
modifications: SPA-PEG 5000 conjugated to the available PEGylation sites
B3: G-CSF variant K16/34/40R Q120K S142K conjugated to SPA-PEG 5000 (ligand)
chain: B2 chain with K133T, S142K
modifications: SPA-PEG 5000 conjugated to the available PEGylation sites
B4: G-CSF variant K16/34/40R Q120K T133K, non-conjugated (ligand)
chain: B2 chain
B5: G-CSF variant K16/34/40R Q70K Q90K Q120K, non-conjugated (ligand)
chain: B2 chain with Q70K, Q90K, K133T
B6: G-CSF variant K16/34/40R Q70K Q90K T105K conjugated to SPA-PEG 5000 (ligand)
chain: B2 chain with Q70K, Q90K, T105K, K120Q, K133T
modifications: SPA-PEG 5000 conjugated to the available PEGylation sites
B7: G-CSF variant K16/34/40R T105K S159K, non-conjugated (ligand)
chain: B2 chain with T105K, K120Q, K133T, S159K
B8: G-CSF variant K16/34/40R T105K Q120K conjugated to SPA-PEG 5000 (ligand)
chain: B2 chain with T105K, K133T
modifications: SPA-PEG 5000 conjugated to the available PEGylation sites
B9: G-CSF variant K16/34/40R Q70K Q90K T105K, non-conjugated (ligand)
chain: B2 chain with Q70K, Q90K, T105K, K120Q, K133T
B10: G-CSF variant K16/34/40R T105K S159K conjugated to SPA-PEG 5000 (ligand)
chain: B2 chain with T105K, K120Q, K133T, S159K
modifications: SPA-PEG 5000 conjugated to the available PEGylation sites
B11: G-CSF variant K16/34/40R Q120K S142K, non-conjugated (ligand)
chain: B2 chain with K133T, S142K
B12: G-CSF variant K16/34/40R conjugated to SPA-PEG 12000 (ligand)
chain: B2 chain with K120Q, K133T
modifications: conjugated to SPA-PEG 12000
B13: G-CSF variant K16/34/40R Q90K T105K conjugated to SPA-PEG 20000 (ligand)
chain: B2 chain with Q90K, T105K, K120Q, K133T
modifications: conjugated to SPA-PEG 20000
B14: G-CSF variant K16/34/40R Q70K Q90K conjugated to SPA-PEG 12000 (ligand)
chain: B2 chain with Q70K, Q90K, K120Q, K133T
modifications: conjugated to SPA-PEG 12000
B15: G-CSF variant K16/34/40R Q90K T105K S159K conjugated to SPA-PEG 12000 (ligand)
chain: B2 chain with Q90K, T105K, K120Q, K133T, S159K
modifications: conjugated to SPA-PEG 12000
B16: G-CSF variant K16/34/40R T105K S159K conjugated to SPA-PEG 12000 (ligand)
chain: B2 chain with T105K, K120Q, K133T, S159K
modifications: conjugated to SPA-PEG 12000
B17: G-CSF variant K16/34/40R conjugated to SPA-PEG 20000 (ligand)
chain: B2 chain with K120Q, K133T
modifications: conjugated to SPA-PEG 20000
B18: G-CSF variant K16/34/40R T105K S159K conjugated to SPA-PEG 20000 (ligand)
chain: B2 chain with T105K, K120Q, K133T, S159K
modifications: conjugated to SPA-PEG 20000
B19: G-CSF variant K16/34/40R Q90K conjugated to SPA-PEG 20000 (ligand)
chain: B2 chain with Q90K, K120Q, K133T
modifications: conjugated to SPA-PEG 20000
B20: G-CSF variant K16/34/40R Q90K T105K conjugated to SPA-PEG 12000 (ligand)
chain: B2 chain with Q90K, T105K, K120Q, K133T
modifications: conjugated to SPA-PEG 12000
B21: G-CSF variant K16/34/40R Q90K T105K S159K conjugated to SPA-PEG 20000 (ligand)
chain: B2 chain with Q90K, T105K, K120Q, K133T, S159K
modifications: conjugated to SPA-PEG 20000

Positions count from the first letter of the chain named. Names and notes keep the numbering of the source.

In one assay the target is T1, human G-CSF receptor. Kind of assay: cell-based or functional assay.
Broadly, the EC50 is the concentration giving half of the maximal effect. A higher EC50 goes with lower potency in that assay. B1 came in with an EC50 of 0.03 nM.

A further assay concerns the target T1, human G-CSF receptor. Kind of assay: cell-based or functional assay. The source holds these as a separate data set.
As to B2, the “EC50 (% of hG-CSF) conjugated to SPA-PEG 5000” value was 8 % of hG-CSF.
The same measure, in the same setting: the value for B3 was 2 % of hG-CSF.
Regarding B4, the “EC50 (% of hG-CSF) non-conjugated” value is 20 % of hG-CSF.
On to B5, for which the “EC50 (% of hG-CSF) non-conjugated” value was 20 % of hG-CSF.
For the molecule B6, the “EC50 (% of hG-CSF) conjugated to SPA-PEG 5000” value is 4 % of hG-CSF.
On to B7, for which the “EC50 (% of hG-CSF) non-conjugated” value is 40 % of hG-CSF.
With B8, the “EC50 (% of hG-CSF) conjugated to SPA-PEG 5000” value is 8 % of hG-CSF.
In the case of B9, the “EC50 (% of hG-CSF) non-conjugated” value was 10 % of hG-CSF.
Consider B10, for which the “EC50 (% of hG-CSF) conjugated to SPA-PEG 5000” value was 20 % of hG-CSF.
On to B11, for which the “EC50 (% of hG-CSF) non-conjugated” value was 10 % of hG-CSF.

Another assay addresses T1, human G-CSF receptor. The assay is described as follows: cell-based or functional assay. This is another data set of the same source.
As to B12, the “EC50 (% of hG-CSF) conjugated to SPA-PEG 12000” value was 10 % of hG-CSF.
B13: the “EC50(% of hG-CSF) conjugated to SPA-PEG 20000” value (“EC50(% of hG-CSF) conjugated” below) is < 1 % of hG-CSF.
Regarding B14, the “EC50 (% of hG-CSF) conjugated to SPA-PEG 12000” value was 8 % of hG-CSF.
Still for that read-out and setting: the value for B15 was 1 % of hG-CSF; that for B16 was 6 % of hG-CSF.
As to B17, the “EC50(% of hG-CSF) conjugated” value is 1 % of hG-CSF.
On to B18, for which the “EC50(% of hG-CSF) conjugated” value is 5 % of hG-CSF.
On the same count and under the same terms, the value for B19 was 7 % of hG-CSF.
For the molecule B20, the “EC50 (% of hG-CSF) conjugated to SPA-PEG 12000” value was 1 % of hG-CSF.
Turning to B21, the “EC50(% of hG-CSF) conjugated” value was < 1 % of hG-CSF.

For the origin of these results see patent publication US20030118612A1 (MAXYGEN, published 2003).
